# In US9765303B2, “Method for the production of differentiated respiratory epithelial cells” (MEDIZINISCHE HOCHSCHULE HANNOVER, priority 2011, dated 2017):
# System: surfactant protein C (SP-C)
# Assay: qRT-PCR of SP-C mRNA in day 24 pluripotent stem cell differentiation cultures
# Format: cell-based, murine
# Conditions: KGF alone; start on day 0 of differentiation compared to later supplementation
# Protocol: This method is based on our 2008 published differentiation protocol^3. To initiate embryoid body (EB) formation “hanging drops” composed of 6×10^2 cells in 20 μl of differentiation medium were generated (day 0 of differentiation). At day 3 of differentiation, EBs (100 EBs/dish) were transferred to non-adherent petri dishes (Greiner) and cultivated in suspension for two additional days. At day 5 of differentiation, 10 EBs/well were seeded on a 0.1% gelatin-coated 6-well culture dish and cultured until day 24 of differentiation. From day 0 to 7 the basal differentiation medium was composed of Iscove's Modified Dulbecco's Medium (IMDM, Invitrogen), 0.2 mM L-glutamine, 0.1 mM β-mercaptoethanol, 0.1 mM non-essential amino acid stock supplemented with 15% FCS and from day 7 to 24 supplemented with 15% serum replacement (Knockout™ SR, Invitrogen). […]
# The differentiation medium was replaced by fresh medium every two to three days. The differentiation was stopped on day 24 and differentiation cultures were analyzed for the presence of lung epithelial cells.
# qRT-PCR was used to quantify mRNA expression of typical lung epithelial markers, in particular for bronchial/bronchiolar and alveolar epithelial cells. […]
molecule,measurement,value
"KGF: recombinant human keratinocyte growth factor (Amgen), also referred to as fibroblast growth factor-7 (protein, UniProt P21781 32-194, looked up) Fibroblast growth factor 7: CNDMTPEQMATNVNCSSPERHTRSYDYMEGGDIRVRRLFCRTQWYLRIDKRGKVKGTQEMKNNYNIMEIRTVAVGIVAIKGVESEFYLAMNKEGKLYAKKECNEDCNFKELILENHYNTYASAKWTHNGGEMFVALNQKGIPVRGKKTKKEQKTAHFLPMAIT",SP-C expression by start of KGF supplementation,highest expression
